The source of these data is US20230002481A1 (Chugai, published 2023).

The experiment concerns the target T1, recombinant human C1r2s2 tetramer (human, UniProt P09871 16-688; P00736 18-705).
T1 construct: Heterotetramer of two C1r and two C1s chains, co-expressed in FreeStyle293-F cells; also called human C1r2s2s
T1 chain 1: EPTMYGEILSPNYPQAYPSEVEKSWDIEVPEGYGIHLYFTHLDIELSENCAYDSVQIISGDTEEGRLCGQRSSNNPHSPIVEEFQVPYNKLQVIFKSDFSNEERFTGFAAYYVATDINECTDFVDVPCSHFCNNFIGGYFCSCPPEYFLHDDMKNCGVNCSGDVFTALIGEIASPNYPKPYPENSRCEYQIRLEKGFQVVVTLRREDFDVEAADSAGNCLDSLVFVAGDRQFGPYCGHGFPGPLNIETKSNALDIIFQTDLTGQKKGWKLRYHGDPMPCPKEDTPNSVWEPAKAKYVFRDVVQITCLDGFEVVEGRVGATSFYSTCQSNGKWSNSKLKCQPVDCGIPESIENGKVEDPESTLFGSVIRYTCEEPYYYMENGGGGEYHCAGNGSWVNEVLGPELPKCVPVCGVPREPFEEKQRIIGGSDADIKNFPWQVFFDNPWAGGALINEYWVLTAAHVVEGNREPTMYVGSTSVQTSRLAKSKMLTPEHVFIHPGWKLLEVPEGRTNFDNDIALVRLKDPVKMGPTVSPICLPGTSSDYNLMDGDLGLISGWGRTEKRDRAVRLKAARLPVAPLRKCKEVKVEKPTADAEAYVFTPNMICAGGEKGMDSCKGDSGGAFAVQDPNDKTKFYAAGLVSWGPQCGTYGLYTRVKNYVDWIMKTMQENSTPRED
T1 chain 2: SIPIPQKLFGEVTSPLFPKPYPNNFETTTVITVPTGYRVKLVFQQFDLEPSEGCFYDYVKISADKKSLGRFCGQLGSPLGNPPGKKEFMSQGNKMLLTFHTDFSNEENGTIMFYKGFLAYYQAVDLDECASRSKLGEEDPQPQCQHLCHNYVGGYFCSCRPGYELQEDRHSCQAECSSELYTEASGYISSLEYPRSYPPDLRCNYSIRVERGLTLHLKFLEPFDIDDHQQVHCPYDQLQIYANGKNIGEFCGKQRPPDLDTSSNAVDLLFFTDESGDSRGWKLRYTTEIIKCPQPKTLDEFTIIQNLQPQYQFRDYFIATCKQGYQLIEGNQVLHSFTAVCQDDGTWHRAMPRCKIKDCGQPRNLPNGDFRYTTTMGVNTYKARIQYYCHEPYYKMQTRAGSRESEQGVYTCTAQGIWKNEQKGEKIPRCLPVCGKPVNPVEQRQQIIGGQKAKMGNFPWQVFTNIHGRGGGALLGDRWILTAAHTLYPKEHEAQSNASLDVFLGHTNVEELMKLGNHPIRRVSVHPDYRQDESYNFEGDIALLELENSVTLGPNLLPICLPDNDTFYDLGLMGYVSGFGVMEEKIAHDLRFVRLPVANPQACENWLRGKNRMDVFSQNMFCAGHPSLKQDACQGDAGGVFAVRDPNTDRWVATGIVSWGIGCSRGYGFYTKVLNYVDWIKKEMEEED
The experiment in a line: SPR (Biacore), pH5.8*: dissociation at pH5.8 after association and dissociation at pH7.4, 37 C, Scrubber fit. As for the experimental part: The kinetic parameters of anti-C1s antibodies against recombinant human C1s (as described in PCT/JP2018/042054), human C1r2s2, and cyno C1r2s2 His/Flag (also referred as cyno C1r2s2 in the Table and Figures) were assessed at pH7.4 and pH5.8, at 37 degrees C. using BIACORE (registered trademark) T200 instrument (GE Healthcare) or BIACORE 4000 (GE Healthcare). ProAG (Pierce) was immobilized onto a CM4 sensorchip using amine coupling kit (GE Healthcare) according to the recommended settings by GE Healthcare. Antibodies and analytes were diluted into the respective running buffers, ACES pH7.4 and pH5.8 (20 mM ACES, 150 mM NaCl, 1.2 mM CaCl₂, 1 mg/ml BSA, 1 mg/ml CMD, 0.05% Tween 20, 0.005 w/v % NaN₃). Each antibody was captured onto the sensor surface by ProA/G. Antibody capture levels were typically 100-200 resonance units (RU). Then, recombinant C1s was injected at concentrations of 25 and 50 nM followed by dissociation at pH7.4 and pH5.8. The surface was regenerated using 10 mM Glycine-HCl, pH1.5. Kinetic parameters at neutral pH conditions and acidic conditions were determined by fitting the sensorgrams with 1:1 binding model using BIACORE (registered trademark) T200 Evaluation software, version 2.0 (GE Healthcare) or BIACORE 4000 Evaluation software. The dissociation rate at pH5.8 (after dissociation at pH7.4, indicated as pH5.8* in TABLE 2) was determined by processing and fitting data using Scrubber 2.0 (BioLogic Software) curve fitting software. The association rate (ka), dissociation rate (kd), binding affinity (KD) at pH7.4 and pH5.8 condition, and dissociation rate (kd) at pH5.8* condition of the antibodies are listed in TABLE 2. Some kinetic parameters of COS0098pHv1 in acidic condition were not correctly calculated because of its weak binding response.
Also, to observe the cross-reactivity of anti-C1s antibodies against human C1r2s2 and cyno C1r2s2 (cyno C1r2s2 His/Flag), BIACORE (registered trademark) kinetics analysis was performed.

B1: COS0098bb (antibody, V domains shown)
VH: QSVEESGGRLVTPGTPLTLTCTVSGFSLTKYTVSWVRQAPGKGLEWIGIINTGGSAYYATWAKGRFTFSKTSTTVDLQITSPTTEDTATYFCARGNGDTDYTNLWGPGTLVTVSS
VL: QVLTQTPSSVSEPVGGTVTINCQASENIYSALAWYQQKPGQPPKLLIYGASNLESGVPSRFKGSGSGTQFTLTISDLECADAATYYCQQYYFTSSTFGGGTKVEIK
notes: Anti-C1s rabbit antibody, parent of COS0098pHv1; the antibody was captured by ProA/G; also called anti-C1s antibody COS0098bb
Regarding B1, the dissociation rate constant (koff) amounted to 0.000909 s⁻¹.

B2: COS0098pHv1 (antibody, V domains shown)
VH: QVQLVQSGAEVKKPGSSVKVSCKASGHTFSKYTVSWIRQPPGKGLEWIGIINTGGSAYPATWAKGRVTITADESTSTAYMELSSLRSEDTAVYYCARGAGDTDYTNLWGQGTLVTVSS
VL: DIQMTQSPSSLSASVGDRVTITCQASENIYSALAWYQQKPGQPPKLLIYGASQLESGVPSRFSGSGSGTDFTLTISSLQPEDFATYYCQQYYFTSHTFGQGTKVEIK
notes: Humanized, optimized pH-dependent variant of COS0098bb
B2: the off-rate (koff) came out at 0.107 s⁻¹.

In general, koff refers to the rate constant with which the complex falls apart.
